From patent US9969998B2, “Compositions of adenosine deaminase-2 (ADA2), variants thereof and methods of using same” (Halozyme, Inc., priority 2014, dated 2018) come the findings set out here.

Data set [1] is described as follows: Adenosine deaminase (ADA) enzymatic activity assay kit. The data set is classed as biochemical. The conditions noted are these: purified protein at 5 μg/mL; for % of WT activity: compared to WT-ADA2. The protocol: Adenosine deaminase activity was determined using an adenosine deaminase (ADA) assay kit (Genway, San Diego, Calif.; Cat. No. BQ014EALD) with minor modifications. The ADA assay is based on the enzymatic deamination of adenosine to inosine, which is converted to hypoxanthine by purine nucleoside phosphorylase (PNP). Hypoxanthine is then converted to uric acid and hydrogen peroxide by xanthine oxidase (XOD). Hydrogen peroxide is further reacted with N-Ethyl-N-(2-hydroxy-3-sulfopropyl)-3-methylaniline (EHSPT) and 4-aminoantipyrine (4-AA) in the presence of peroxidase (POD) to generate quinone dye, which is monitored in a kinetic manner.
Briefly, 5 μL samples in duplicates (at appropriate dilutions to measure steady-state, non-saturating enzyme activity) were added to 120 μL R1 reagent (provided by the manufacturer; 50 mM Tris HCL, pH 8.0, 2 mM 4-AA, 0.1 U/mL PNP, 0.2 U/mL XOD, 0.6 U/mL peroxidase) in a 96 well plate, according to manufacturer's instructions. The mixtures were incubated at 37° C. for approximately 5 min and 60 μL of R2 reagent (provided by the manufacturer; 50 mM Tris HCl, pH 4.0, 10 mM Adenosine, 2 mM EHSPT) was added to the mixtures. Then, change in absorbance (AA) at 556 nm over time at 37° C. was measured. One unit of ADA is the amount of ADA that generates one μmole of inosine from adenosine per minute at 37° C. Adenosine deaminase activity in mU/mL was calculated using the following formula: 1 mU/mL=(ΔA/min×Tv)/(Sv×ϵ×1) • where Tv=total volume (185 μL), Sv=sample volume (5 μL), ϵ=32.2×10^−3 μM^−1 cm^−1, 1=0.5 cm.
Adenosine deaminase activity of WT rHuADA2 and variants tested above were determined using the adenosine deaminase activity (ADA) assay described in Example 4. Activity was assessed on purified rHuADA2 WT and variants that were diluted to 5 μg/mL, and then serially diluted 2 fold to generate 4 measurements.
Adenosine deaminase activity of PEGylated rHuADA2 and variants was assessed using the method described in Example 4, and compared to the activity of the corresponding non-PEGylated form.
Selected candidate variants described in Table 8 above, containing an amino acid substitution in a residue that play a role in enzymatic activity, were assessed for their adenosine deaminase activity using the method described in Example 4. To perform the experiments, purified WT rHuADA2 and tested variants were prepared at 5 μg/mL concentration to normalize the amount of protein in each experiment.

Data set [2] is described as follows: Kinetic assessment of adenosine deaminase activity (ammonia assay, Michaelis-Menten). The data set is classed as biochemical. The note with it: [E] = 8.5 nM; for kcat: kcat=Vmax/0.0085/60. The procedure:
Adenosine deaminase activity was determined by the measurement of ammonia released from adenosine when broken down to inosine. Ammonia was measured using a commercially available Ammonia Assay kit (Cat. No. AA0100, Sigma-Aldrich, St. Louis, Mo.). The kit contains dry reagents containing α-ketoglutaric acid and NADPH, which were reconstituted with 5 mL water prior to use in the assay. Ammonia reacts with α-ketogluaric acid (KGA) and reduced nicotinamide adenine dinucleotide phosphate (NADPH) in the presence of L-glutamate dehydrogenase (GDH).
Kinetics parameters of rHuADA2 WT and variants were compared using this assay at different adenosine concentrations at pH 7.6 and 6.5. Adenosine concentrations ranging from 20 μM to 20 mM were used. Sub-molar concentration of adenosine stock was prepared in 1N NaOH.
For the enzymatic assays at pH 7.6, adenosine was serially diluted with 100 mM sodium acetate (NaOAc), pH 4.9. A 2× reaction mixture was prepared, containing reconstituted ammonia assay reagent (containing about 4 mM α-ketoglutarate and about 300 μM NADPH), WT rHuADA2 or variants at 1 μg/mL (17 nM) and glutamate dehydrogenase (GDH, 1:50 dilution). 85 μL of adenosine was added to 85 μL 2× mixture in duplicate in a UV-transparent half-area plate. The change in absorbance (ΔA) at 340 nm over time at room temperature was monitored.
For the enzymatic assay at pH 6.5, adenosine was serially diluted with 200 mM piperazine-N,N′-bis(2-ethanesulfonic acid) (PIPES), pH 6.5. A 2× reaction mixture in 200 mM PIPES, pH 6.5 was prepared, containing 4 mM α-ketoglutarate, 300 μM NADPH, 1 μg/mL (17 nM) rHuADA2 or variants and 50 U/mL GDH (Cat No. G2626, Sigma-Aldrich). The enzymatic reaction was initiated by adding equal volume of adenosine to the 2× mixture in a UV-transparent half-area plate as described above, and the change in absorbance (AA) at 340 nm over time at room temperature was monitored.
Adenosine deaminase activity in mU/mL (μM/min equivalent) was calculated using the following formula: 1 mU/mL=−(−ΔA/min×Tv)/(Sv×ϵ×1) • where Tv=total volume (170 μL), Sv=sample volume (85 μL), ϵ=6.22×10^−3 μM^−1 cm^−1, 1=1 cm.
The activity data were fitted with non-linear regression of Michaelis-Menten equation using Graphpad Prism software to obtain Km and Vmax. Other kinetics parameters such as kcat and kcat/Km were also determined.

B1: H267A: ADA2 variant SEQ ID NO:34 (protein)
chain: IDETRAHLLLKEKMMRLGGRLVLNTKEELANERLMTLKIAEMKEAMRTLIFPPSMHFFQAKHLIERSQVFNILRMMPKGAALHLHDIGIVTMDWLVRNVTYRPHCHICFTPRGIMQFRFAHPTPRPSEKCSKWILLEDYRKRVQNVTEFDDSLLRNFTLVTQHPEVIYTNQNVVWSKFETIFFTISGLIHYAPVFRDYVFRSMQEFYEDNVLYMEIRARLLPVYELSGEHHDEEWSVKTYQEVAQKFVETHPEFIGIKIIYSDARSKDVAVIAESIRMAMGLRIKFPTVVAGFDLVGHEDTGHSLHDYKEALMIPAKDGVKLPYFFHAGETDWQGTSIDRNILDALMLNTTRIGHGFALSKHPAVRTYSWKKDIPIEVCPISNQVLKLVSDLRNHPVATLMATGHPMVISSDDPAMFGAKGLSYDFYEVFMGIGGMKADLRTLKQLAMNSIKYSTLLESEKNTFMEIWKKRWDKFIADVATK
modifications: human ADA2 H264A, mature numbering
As to B1, in data set [1], the “Adenosine deaminase activity mU/ml” value came to 70.9 mU/ml, the “Adenosine deaminase activity ΔA/min” value is reported as 30.8 ΔA/min and the “% of WT activity” value turned out to be 91%.

B2: R222Q/K374E: ADA2 combination variant SEQ ID NO:263 (protein)
chain: IDETRAHLLLKEKMMRLGGRLVLNTKEELANERLMTLKIAEMKEAMRTLIFPPSMHFFQAKHLIERSQVFNILRMMPKGAALHLHDIGIVTMDWLVRNVTYRPHCHICFTPRGIMQFRFAHPTPRPSEKCSKWILLEDYRKRVQNVTEFDDSLLRNFTLVTQHPEVIYTNQNVVWSKFETIFFTISGLIHYAPVFRDYVFRSMQEFYEDNVLYMEIRAQLLPVYELSGEHHDEEWSVKTYQEVAQKFVETHPEFIGIKIIYSDHRSKDVAVIAESIRMAMGLRIKFPTVVAGFDLVGHEDTGHSLHDYKEALMIPAKDGVKLPYFFHAGETDWQGTSIDRNILDALMLNTTRIGHGFALSKHPAVRTYSWEKDIPIEVCPISNQVLKLVSDLRNHPVATLMATGHPMVISSDDPAMFGAKGLSYDFYEVFMGIGGMKADLRTLKQLAMNSIKYSTLLESEKNTFMEIWKKRWDKFIADVATK
modifications: human ADA2 R219Q/K371E, mature numbering
Regarding B2, in data set [2] (pH 6.5), the Km worked out at 990 µM, the maximum rate (Vmax) was found to be 58.56 µM/min and the kcat was determined as 114.82 s⁻¹. Moreover, in data set [2] (pH 7.6), the Michaelis constant (Km) is 1580 µM, the Vmax turned out to be 87.27 µM/min and the catalytic constant (kcat) was 171.12 s⁻¹.

B3: H267Q: ADA2 variant SEQ ID NO:35 (protein)
chain: IDETRAHLLLKEKMMRLGGRLVLNTKEELANERLMTLKIAEMKEAMRTLIFPPSMHFFQAKHLIERSQVFNILRMMPKGAALHLHDIGIVTMDWLVRNVTYRPHCHICFTPRGIMQFRFAHPTPRPSEKCSKWILLEDYRKRVQNVTEFDDSLLRNFTLVTQHPEVIYTNQNVVWSKFETIFFTISGLIHYAPVFRDYVFRSMQEFYEDNVLYMEIRARLLPVYELSGEHHDEEWSVKTYQEVAQKFVETHPEFIGIKIIYSDQRSKDVAVIAESIRMAMGLRIKFPTVVAGFDLVGHEDTGHSLHDYKEALMIPAKDGVKLPYFFHAGETDWQGTSIDRNILDALMLNTTRIGHGFALSKHPAVRTYSWKKDIPIEVCPISNQVLKLVSDLRNHPVATLMATGHPMVISSDDPAMFGAKGLSYDFYEVFMGIGGMKADLRTLKQLAMNSIKYSTLLESEKNTFMEIWKKRWDKFIADVATK
modifications: human ADA2 H264Q, mature numbering
Turning to B3, in data set [1], the “Adenosine deaminase activity mU/ml” value came out at 89.3 mU/ml, the “Adenosine deaminase activity ΔA/min” value is given as 38.8 ΔA/min and the “% of WT activity” value stood at 114%.

B4: R222Q/K374D: ADA2 combination variant SEQ ID NO:264 (protein)
chain: IDETRAHLLLKEKMMRLGGRLVLNTKEELANERLMTLKIAEMKEAMRTLIFPPSMHFFQAKHLIERSQVFNILRMMPKGAALHLHDIGIVTMDWLVRNVTYRPHCHICFTPRGIMQFRFAHPTPRPSEKCSKWILLEDYRKRVQNVTEFDDSLLRNFTLVTQHPEVIYTNQNVVWSKFETIFFTISGLIHYAPVFRDYVFRSMQEFYEDNVLYMEIRAQLLPVYELSGEHHDEEWSVKTYQEVAQKFVETHPEFIGIKIIYSDHRSKDVAVIAESIRMAMGLRIKFPTVVAGFDLVGHEDTGHSLHDYKEALMIPAKDGVKLPYFFHAGETDWQGTSIDRNILDALMLNTTRIGHGFALSKHPAVRTYSWDKDIPIEVCPISNQVLKLVSDLRNHPVATLMATGHPMVISSDDPAMFGAKGLSYDFYEVFMGIGGMKADLRTLKQLAMNSIKYSTLLESEKNTFMEIWKKRWDKFIADVATK
modifications: human ADA2 R219Q/K371D, mature numbering
B4: in data set [2] (pH 6.5), the Km came out at 790 µM, the maximum rate (Vmax) stood at 60.87 µM/min and the kcat was found to be 119.35 s⁻¹. In data set [2] (pH 7.6), the Km was found to be 1710 µM, the Vmax stood at 77.01 µM/min and the kcat was 151.00 s⁻¹.

B5: R222Q/R23E: ADA2 combination variant SEQ ID NO:265 (protein)
chain: IDETRAHLLLKEKMMRLGGELVLNTKEELANERLMTLKIAEMKEAMRTLIFPPSMHFFQAKHLIERSQVFNILRMMPKGAALHLHDIGIVTMDWLVRNVTYRPHCHICFTPRGIMQFRFAHPTPRPSEKCSKWILLEDYRKRVQNVTEFDDSLLRNFTLVTQHPEVIYTNQNVVWSKFETIFFTISGLIHYAPVFRDYVFRSMQEFYEDNVLYMEIRAQLLPVYELSGEHHDEEWSVKTYQEVAQKFVETHPEFIGIKIIYSDHRSKDVAVIAESIRMAMGLRIKFPTVVAGFDLVGHEDTGHSLHDYKEALMIPAKDGVKLPYFFHAGETDWQGTSIDRNILDALMLNTTRIGHGFALSKHPAVRTYSWKKDIPIEVCPISNQVLKLVSDLRNHPVATLMATGHPMVISSDDPAMFGAKGLSYDFYEVFMGIGGMKADLRTLKQLAMNSIKYSTLLESEKNTFMEIWKKRWDKFIADVATK
modifications: human ADA2 R219Q/R20E, mature numbering
B5: in data set [2] (pH 6.5), the Km came out at 840 µM, the Vmax was determined as 60.47 µM/min and the kcat turned out to be 118.57 s⁻¹. In addition, in data set [2] (pH 7.6), the Km came to 1460 µM, the Vmax came out at 84.71 µM/min and the kcat came to 166.10 s⁻¹.
